Reference: US20220282288A1, “NOVEL OLEATE HYDRATASES” (BRAIN BIOTECH AG, priority 2019, published 2022)

B1: oleate hydratase from Lactococcus lactis: oleate hydratase of Lactococcus lactis strain A106, previously annotated as linoleate isomerase (protein, listed as Lactococcus lactis)
chain: MRYTNGNYEAFVHPRKPENVDQKSAYIIGAGLAGLATAVFLIRDGQMSGDRIHILEELPLSGGSLDGSFIPHDGFVVRGGREMENHFECLWDLFRTIPSLEVDNASVLDEFYRIDRDDPNSSNCRIIHNRGERVDDDGKFTLSPKAQEEIIKLFMTKEELLVGKTIEDCFTDEFFESNFWLYWCSMFAFEKWHSAIEMRRYIMRFIHHIEGLPDFSALKFTKYNQYESLVKPLISYLKDHGVDFKYGAQVENVEVDFSNGKKVAKAIVFADKKIKELTGNDLVFVTNGSITESSTQGSPTQVAPKTSELGGSWKLWQNLAKQSEEFGHPDVFCKDIPKEAWVVSATVTWKNLKIQPYFEKLTHRQLRSGKVVTGGIVTVKDSNWLLSFTTHRQPHFKEQNDQETVTWVYGLLSNTPGNYIKKPIEDCTGEEITQELLYHLGMPEEEIEAFVKENTNTIPVYMPFITSYFMLREPGDRPLVVPEQSVNLAFLGNFAETERDTVFTTEYSVRTAMEAVYQLLNVDRGVPEVYASAYDLRTLASSAYYLSDKQKLEDLELSFIKKQALKVGLKKIKGTYIEELLEDAGLI
modifications: Oleat Hydratase
notes: oleate hydratase of Lactococcus lactis strain A106, previously annotated as linoleate isomerase
B2: 1Lf-2LI: chimeric oleate hydratase: 193 N-terminal amino acids of Lysinibacillus fusiformis enzyme and 394 C-terminal amino acids of Lactococcus lactis enzyme (protein)
chain: MYYSNGNYEAFARPKKPEGVDGKSAYLIGSGLASLSAACFLIRDGQMKGENIHILEELDISGGSLDGILNPTRGFIIRGGREMEDHFECLWDLFRSIPSLEVDNASVLDEFYWLNKEDPNYSKCRLIKDRGQRLEDDGKFTLSDQSSEEMIKLFFTPEEKLEDKKITDVFSEEFFESNFWLYWSTMFAFEKWHSAIEMRRYIMRFIHHIEGLPDFSALKFTKYNQYESLVKPLISYLKDHGVDFKYGAQVENVEVDFSNGKKVAKAIVFADKKIKELTGNDLVFVTNGSITESSTQGSPTQVAPKTSELGGSWKLWQNLAKQSEEFGHPDVFCKDIPKEAWVVSATVTWKNLKIQPYFEKLTHRQLRSGKVVTGGIVTVKDSNWLLSFTTHRQPHFKEQNDQETVTWVYGLLSNTPGNYIKKPIEDCTGEEITQELLYHLGMPEEEIEAFVKENTNTIPVYMPFITSYFMLREPGDRPLVVPEQSVNLAFLGNFAETERDTVFTTEYSVRTAMEAVYQLLNVDRGVPEVYASAYDLRTLASSAYYLSDKQKLEDLELSFIKKQALKVGLKKIKGTYIEELLEDAGLI
modifications: OhyLfus581Llac
notes: chimeric oleate hydratase: 193 N-terminal amino acids of Lysinibacillus fusiformis enzyme and 394 C-terminal amino acids of Lactococcus lactis enzyme
B3: 1LI-2Lf: chimeric oleate hydratase: 193 N-terminal amino acids of Lactococcus lactis enzyme and 397 C-terminal amino acids of Lysinibacillus fusiformis enzyme (protein)
chain: MRYTNGNYEAFVHPRKPENVDQKSAYIIGAGLAGLATAVFLIRDGQMSGDRIHILEELPLSGGSLDGSFIPHDGFVVRGGREMENHFECLWDLFRTIPSLEVDNASVLDEFYRIDRDDPNSSNCRIIHNRGERVDDDGKFTLSPKAQEEIIKLFMTKEELLVGKTIEDCFTDEFFESNFWLYWCSMFAFEKWHSAMEMRRYIMRFIHHIGGLPDLSALKFTKYNQYESLVLPMIKYLEGHDVDFQYNTVVENVLVDKVGDKKVAHTLVLRKNGVKENIELTENELVFVTNGSITESTTYGDNYTPAPVNKELGGSWSLWKNIAAQDTDFGRPEKFCDNLPKESWFVSATLTTLDDRVAPYIEKISKRDPYAGKVVTGGIVTATDSNWMLSYTLNRQPHFKHQPKDQLVVWIYGLLSNKPGDFIKKSITECSGIEIAQEWLYHMGVPVDEIPDIAQNSCNTIPCYMPYITSYFMPRAMGDRPLVVPEGSANLAFIGNFSETVRDTVFTTEYSVRTAMEAVYQLLNIDRGVPEVFASSFDVRTLLASTARLLDGKKLTDIDAPFILKQIGKLGIHKTKDTIIYDLLKESELI
modifications: OhyLlac579Lfus
notes: chimeric oleate hydratase: 193 N-terminal amino acids of Lactococcus lactis enzyme and 397 C-terminal amino acids of Lysinibacillus fusiformis enzyme
B4: oleate hydratase from Lysinibacillus fusiformis: oleate hydratase of Lysinibacillus fusiformis, known from the prior art (protein, listed as Lysinibacillus fusiformis)
chain: MYYSNGNYEAFARPKKPEGVDGKSAYLIGSGLASLSAACFLIRDGQMKGENIHILEELDISGGSLDGILNPTRGFIIRGGREMEDHFECLWDLFRSIPSLEVDNASVLDEFYWLNKEDPNYSKCRLIKDRGQRLEDDGKFTLSDQSSEEMIKLFFTPEEKLEDKKITDVFSEEFFESNFWLYWSTMFAFEKWHSAMEMRRYIMRFIHHIGGLPDLSALKFTKYNQYESLVLPMIKYLEGHDVDFQYNTVVENVLVDKVGDKKVAHTLVLRKNGVKENIELTENELVFVTNGSITESTTYGDNYTPAPVNKELGGSWSLWKNIAAQDTDFGRPEKFCDNLPKESWFVSATLTTLDDRVAPYIEKISKRDPYAGKVVTGGIVTATDSNWMLSYTLNRQPHFKHQPKDQLVVWIYGLLSNKPGDFIKKSITECSGIEIAQEWLYHMGVPVDEIPDIAQNSCNTIPCYMPYITSYFMPRAMGDRPLVVPEGSANLAFIGNFSETVRDTVFTTEYSVRTAMEAVYQLLNIDRGVPEVFASSFDVRTLLASTARLLDGKKLTDIDAPFILKQIGKLGIHKTKDTIIYDLLKESELI
modifications: Oleat Hydratase
notes: oleate hydratase of Lysinibacillus fusiformis, known from the prior art

Key:
[1] = Effects of temperature on enzyme activity (oleic acid to 10-hydroxystearic acid); assay type: biochemical; details: pH7.0, 150 mM oleic acid, 20 min
Experimental: The reactions were performed in 100 mM citrate/phosphate buffer (pH7.0) containing MgSO4;
3.1 mg/ml total protein of Lactococcus lactis (a) or 5.6 mg/mL of total protein of chimeric oleate hydratase from Lysinibacillus fusiformis and Lactococcus lactis (b). FAD (0.1 mM) and NADH (5 mM) were applied for the FAD-reducing conditions. Reactions were started by the addition of 150 mM oleic acid for 20 min. At the relative activity of 100%, the specific enzyme activity of the oleate hydratase from Lactococcus lactis was 0.8 μmol min^−1 mg^−1 total protein and the specific enzyme activity of the chimeric oleate hydratase from Lysinibacillus fusiformis and Lactococcus lactis was 1.0 μmol min^−1 mg^−1 total protein.

[2] = Conversion of oleic acid to 10-hydroxystearic acid by cell-free extracts (HPLC); assay type: biochemical; details: for activity at 30° C. compared with the wildtype enzymes: FIG. 3; for conversion of oleic acid to 10-hydroxystearic acid: cell-free extracts, pH7.0, 30° C., 150 mM oleic acid, 60 min, FAD 0.1 mM, NADH 5 mM, HPLC analysis
[3] = Effects of pH on enzyme activity (oleic acid to 10-hydroxystearic acid, HPLC-MS); assay type: biochemical; details: citrate/phosphate buffer pH 5.6-8.0, 30° C., 40 min, 150 mM oleic acid
Experimental: The reactions were performed in 100 mM citrate/phosphate buffer (pH levels ranging from 5.6-8.0) containing MgSO4; 8.9 mg/ml total protein of Lactococcus lactis or 9.3 mg/mL of total protein of chimeric oleate hydratase from Lysinibacillus fusiformis and Lactococcus lactis. FAD (0.1 mM) and NADH (5 mM) were applied for the FAD-reducing conditions. Reactions were started by the addition of 150 mM oleic acid at 30° C. for 40 min. Following the reactions, the solutions of fatty acids and hydroxy fatty acids were recovered by three consecutive extractions with 1.6 volume of dichloromethane. After solvent evaporation, the resultant sample was diluted in ethanol and analyzed by HPLC-MS. Analyses were performed on an Agilent 1100 HPLC instrument equipped with evaporative light scattering detector (ELSD) and a Luna® C18 (2) HPLC column (RP-18e 5 μm, 250×4.6 mm) maintained at 50° C. The elution system consisted of ddH2O with 0.1% formic acid (A) and methanol with 0.1% formic acid (B). The gradient was set as follows: 0 min (80% B); 15 min (100% B); 23.2 min (80% B) at a flow rate of 0.7 mL min^−1.
Data represent the mean±standard deviation of three independent experiments (FIG. 5A and FIG. 6A).

[4] = Kim, Bi-Na et al. (2012); cited from earlier work

Molecule	specific enzyme activity at the relative activity of 100% [1]	temperature of highest enzyme activity (temperature optimum) [1] [°C]	activity at 30° C. compared with the wildtype enzymes [2]	conversion of oleic acid to 10-hydroxystearic acid [2]	pH optimum [3]	temperature of maximal enzyme activity [4] [°C]
B1	0.8 μmol min^−1 mg^−1 total protein	15				
B2	1.0 μmol min^−1 mg^−1 total protein		higher than the wildtype enzyme from Lactococcus lactis and lower than the wildtype enzyme from Lysinibacillus fusiformis	confirmed	6.5	
B3			higher than the wildtype enzyme from Lactococcus lactis and lower than the wildtype enzyme from Lysinibacillus fusiformis	confirmed		
B4						35
